Values of other authors in PMC12455044.

Molecular target: thrombin (Homo sapiens) (UniProt P00734)

Q: For PAR-1 (from UniProt P25116), which Kd is on record?
A: 10 nM
